In publication PMC10840515:

Target: HLA-DR1 (HLA-DRA*0101, HLA-DRB1*0101) (human)
Assay: ELISA

## influenza A virus hemagglutinin (HA) peptide HA305-319
  IC50: 29 nM
